# Measurements from US20020143164A1 (published 2002).
# Biological target: Endogenous Ras of HEK-293T cells (human (endogenous in HEK-293T cells))
# Test: cell-based or functional assay
binder,measurement,value
"Flag-tagged full-length GRF4 (enzyme, not shown: small tags and cut ends) MKPLAIPANHGVMGQQEKHSLPADFTKLHLTDSLHPQVTHVSSSHSGCSITSDSGSSSLSDIYQATESEAGDMDLSGLPETAVDSEDDDDEEDIERASDPLMSRDIVRDCLEKDPIDRTDDDIEQLLEFMHQLPAFANMTMSVRRELCAVMVFAVVERAGTIVLNDGEELDSWSVILNGSVEVTYPDGKAEILCMGNSFGVSPTMDKEYMKGVMRTKVDDCQFVCIAQQDYCRILNQVEKNMQKVEEEGEIVMVKEHRELDRTGTRKGHIVIKGTSERLTMHLVEEHSVVDPTFIEDFLLTYRTFLSSPMEVGKKLLEWFNDPSLRDKVTRVVLLWVNNHFNDFEGDPAMTRFLEEFENNLEREKMGGHLRLLNIACAAKAKRRLMTLTKPSREAPLPFILLGGSEKGFGIFVDSVDSGSKATEAGLKRGDQILEVNGQNFENIQLSKAMEILRNNTHLSITVKTNLFVFKELLTRLSEEKRNGAPHLPKIGDIKKASRYSIPDLAVDVEQVIGLEKVNKKSKANTVGGRNKLKKILDKTRISILPQKPYNDIGIGQSQDDSIVGLRQTKHIPTALPVSGTLSSSNPDLLQSHHRILDFSATPDLPDQVLRVFKADQQSRYIMISKDTTAKEVVIQAIREFAVTATPDQYSLCEVSVTPEGVIKQRRLPDQLSKLADRIQLSGRYYLKNNMETETLCSDEDAQELLRESQISLLQLSTVEVATQLSMRNFELFRNIEPTEYIDDLFKLRSKTSCANLKRFEEVINQETFWVASEILRETNQLKRMKIIKHFIKIALHCRECKNFNSMFAIISGLNLAPVARLRTTWEKLPNKYEKLFQDLQDLFDPSRNMAKYRNVLNSQNLQPPIIPLFPVIKKDLTFLHEGNDSKVDGLVNFEKLRMIAKEIRHVGRMASVNMDPALMFRTRKKKWRSLGSLSQGSTNATVLDVAQTGGHKKRVRRSSFLNAKKLYEDAQMARKVKQYLSNLELEMDEESLQTLSLQCEPATNTLPKNPGDKKPVKSETSPVAPRAGSQQKAQSLPQPQQQPPPAHKINQGLQVPAVSLYPSRKKVPVKDLPPFGINSPQALKKILSLSEEGSLERHKKQAEDTISNASSQLSSPPTSPQSSPRKGYTLAPSGTVDNFSDSGHSEISSRSSIVSNSSFDSVPVSLHDERRQRHSVSIVETNLGMGRMERRTMIEPDQYSLGSYAPMSEGRGLYATATVISSPSTEELSQDQGDRASLDAADSGRGSWTSCSSGSHDNIQTIQHQRSWETLPFGHTHFDYSGDPAGLWASSSHMDQIMFSDHSTKYNRQNQSRESLEQAQSRASWASSTGYWGEDSEGDTGTIKRRGGKDVSIEAESSSLTSVTTEETKPVPMPAHIAVASSTTKGLIARKEGRYREPPPTPPGYIGIPITDFPEGHSHPARKPPDYNVALQRSRMVARSSDTAGPSSVQQPHGHPTSSRPVNKPQWHKPNESDPRLAPYQSQGFSTEEDEDEQVSAV",enhancement of Ras activation in cells after 8-Br-cAMP (GST-Raf1-RBD precipitation),3.9 fold
same,enhancement of Ras activation in cells after 8-Br-cAMP plus H-89 (GST-Raf1-RBD precipitation),3.5 fold
